Assay: soluble on expression in E. coli; label from the status in PepcDB or PDB records

Which “soluble on expression in E. coli” value does the source give for “QVQLQESGPGLVKPSETLSLTCTVSGASISSYYWSWIRQPPGKGLEWIGYIGGEGSTNYNPSLKSRVTISVDTSKNQFSLKLRSVTAADTAVYYCARERLGIGDYWGQGTLVTVSSASTKGPSVFPLAPSSKSTSGGTAALGCLVKDYFPEPVTVSWNSGALTSGVHTFPAVLQSSGLYSLSSVVTVPSSSLGTQTYICNVNHKPSNTKVDKKVEPK” here?
Its value is “soluble”.

Which “soluble on expression in E. coli” value does the source give for “KGFSSEDKGEWKLKLDASGNGQAVIRFLPAKTDDALPFAILVNHGFKKNGKWYIETCSSTHGDYDSCPVCQYISKNDLYNTNKTEYSQLKRKTSYWANILVVKDPQAPDNEGKVFKYRFGKKIWDKINAMIAVDTEMGETPVDVTCPWEGANFVLKVKQVSGFSNYDESKFLNQSAIPNIDDESFQKELFEQMVDLSEMTSKDKFKSFEELNTKFNQVLGTAALGGAAAAAAS” here?
The value was “soluble”.

For “GSPNSPATGEKKECWSWESYLEEQKAITAPVSLFQDSQAVTHNKNGFKLGMKLEGIDPQHPSMYFILTVAEVCGYRLRLHFDGYSECHDFWVNANSPDIHPAGWFEKTGHKLQPPKGYKEEEFSWSQYLRSTRAQAAPKHLFVSQSHSPPPLGFQVGMKLEAVDRMNPSLVCVASVTDVVDSRFLVHFDNWDDTYDYWCDPSSPYIHPVGWCQKQGKPLTPPQDYPDPDNFCWEKYLEETGASAVPTWAFKVRPPHSFLVNMKLEAVDRRNPALIRVASVEDVEDHRIKIHFDGWSHGYDFWIDADHPDIHPAGWCSKTGHPLQPPLGPREPSSAVDSSGRIVTD”, which “soluble on expression in E. coli” value is on record?
The value was “soluble”.

Which “soluble on expression in E. coli” value does the source give for “MSGASSITATEPYRDVQIRPAVAPDVARVAAIDEAATGEAKPRYWQSLFENFSQARAGCRAFLIAELKGEVVGFICGEVRDFEFGAESCGWVFALTVDPAIRVNSIGTQLFEEICQIFTQAGVRKVRTMIEHDNQLVMAFFRSQGLMVGRFIGMEKNLD” here?
The value was “soluble”.

With “ALEGTEFARSEGASALASVNPLKTTVEEALSRGWSVKSGTGTEDATKKEVPLGVAADANKLGTIALKPDPADGTADITLTFTMGGAGPKNKGKIITLTRTAADGLWKCTSDQDEQFIPKGCSR” as the sequence, how does the “soluble on expression in E. coli” value read?
The value was “soluble”.

Which “soluble on expression in E. coli” value does the source give for “GPGSMNVDDFRTVIPSPVYVATRGERSGINVAVRALAPVTDVVFDMEEQFAVVCQRRRFSTYAISSWMESLDVPSIPGAAVPLVSVEPQGFSSLGFALSALQFLSSSLHVIAGYHRAPVVDIFDLENVDEETSEPQQRFNLTDVKENGNVEDGSSAYANDVMPMDRYVSLGALSSGLSVWLDSRSGKAEACTGVLTRQYTIGAHNRHTGRRDPLACVTSLCQGNPANILLGTEAGALQLWDVRCARECVAQHMTSASICRLHPSYSYPLRNVVWLNTLAGCVEAVSVGQSDMELLARRLCPDFQRSSSTFHLPPPRLSFMESSGVVACPHISSGKLLLYDGSSLVKQPNNSRTQLSSYNRGVDGKDNEYENGHCSNFGGFLREASSSSEESGEREIPLLNALPSEANALVTACTVWSNRDMFVLGDETGRVQLL” here?
The value was “not soluble”.

With “MGSDKIHHHHHHCSCNDLLDEKAYDFVSPEQLGDSESAASQLVTGAYNTVITSFIAPGSYLYLTNMDCDYASGASWAFGNVGAGNPQGFWGIDHMWQGSYTLIHRANLGISKISAMSNLSQESKQDALAQLCFLKAWAYFNLVRNYGPVPIFRKSISEGEAMSQPRASVSDVYAHIIELLEQAEGMYSKDDAGFVVGHASNGAAKALLAKVYVTMASGAMSGVPIVVKGGNPNIFEPQPITHIAKTVAGYESFDPAKYYALARDKAWEVINEYTLFDNYMDVWAIGNRNKGEHIWMAQAISGDKDFGNTICQDYVGIFKEDGTMEGNWYGMRDHWYLLFEEQDKRIVDGVIHRYASDGISNGKVIYNYYPRWYADKVENKEVYDSQGNAFDGTEVYHEGQGWTLAKLTKFTFVTDRKQKNSDFHFPLLRLPDIMLIYAEAVNELNGGPDAEAYNQVNRIRTRAHATPFSGMNQDEFRSAVLEERARELAYEADRRYDLFRWGIYLDVMNAIDMDEHNVTKRRLERNLLYPIPTSEVNSNDKIDSNNPGW” as the sequence, how does the “soluble on expression in E. coli” value read?
The value was “not soluble”.

For “MSLNQQKKQAPVELKVGQTFPLTIKRLGINGEGVGYFKKKVVFVPGALPGEEVVVQATKVQPKFSEGRIKKIRKASEHRVAPPCPVYEQCGGCQLQHLAYSQQLREKRDIVIQSLERHTKFKVENMEIKETIGMDNPWNYRNKSQFQIGRSQSGSIIAGLYGLDSHDIVPIKDCIVQHPATNKTTGIVRRILEDFNVSVYNERKRKGDVRTIVTRVGFETGEVQVVLVTAKETLPHKEEIVKAIQKRLPEVKSIIQNVNGAKTSVIFGEKTKQLAGKTVIQEVLGDVSFELSARAFFQLNPEQTVKLYDEVKKAAQLTGKEKVVDAYCGVGTIGMWVADGAKEVRGMDVIKESIDDAKKNAKKHGMANATYVTGTAEHWLPKWTKEGFRPDVVIVDPPRTGCDSTFLDTIKKVKPKRFVYVSCNPSTLAKDLQTLSKDYRVDYIQPVDMFPQTAHVEAVARLVLKSSNEGHHHHHH”, which “soluble on expression in E. coli” value is on record?
The value was “not soluble”.

With “MGSDKIHHHHHHMKALWILLSLTLWLFGAQNLELIKGQALFLELDKKDFLSLKNNDKNIPTFAHPKNQEKILAIFSLPYKNPPQNTKLIAFYKDKKEEIFIKTLEGNYKSEKLQIENKKIFPPKTIQERITKELKEANAIYSSYTPKALFNGAFNIPLNSFITSDFGKARTFNEKVASYHSGTDFRATTGTPIYAANSGVVKIAKDRYFAGNSVVIDHGFGIYSQYYHLSKIDVKIGQKIKKGELIGLSGATGRVSGPHLHFGILAGGKQVDPLDFVSKFNAIFQ” as the sequence, how does the “soluble on expression in E. coli” value read?
The value was “not soluble”.

Which “soluble on expression in E. coli” value does the source give for “MHLAKERSSVSGTLRVGDRSPRIAEVRTALTRLGLLEGTTKNLEQTKSDTFTDSETLFDEDLALALQGFQQARGIIASGEINEITLKLLREASYSLGARVLSFEPNNIFVGDDVVQLQHQLQELGFYTDRVDGRFGELTYTSLVNYQLNYGLNPDGICGPETIRAFGRLGRRITGGSPHALRERERVRDAGPMLAGKRVVIDPGFGGADKGQVVRGPYGDITEEEIIWDLAGRIEGRMIAAGMETIVSRPRQDSPSLKGRADIANAFGADVMISLQCDKYPNDKANGVASFYFGSEMGSSSLTGEMLSGFIQREISARTDLVNCGNHGRTWDLLRITEMPTVEVVLGYLTNPHDVAILTDPEQRDAIAEAIVVAVKRLYLLDDDDQPTGTYRFSEMLEQGLL” here?
Its value is “not soluble”.

For “GMSDDLTDAQTAAIPEGFSQLNWSRGFGRQIGPLFEHREGPGQARLAFRVEEHHTNGLGNCHGGMLMSFADMAWGRIISLQKSYSWVTVRLMCDFLSGAKLGDWVEGEGELISEEDMLFTVRGRIWAGERTLITGTGVFKALSARKPRPGELAYKEEA”, which “soluble on expression in E. coli” value is on record?
Its value is “soluble”.

Which “soluble on expression in E. coli” value does the source give for “MKAVSPVRPSGRKAPSGCGGGELALRCLAEHGHSLGGSAAAAAAAAAARCKAAEAAADEPALCLQCDMNDCYSRLRRLVPTIPPNKKVSKVEILQHVIDYILDLQLALETHPALLRQPPPPAPPHHPAGTCPAAPPRTPLTALNTDPAGAVNKQGDSILCR” here?
Its value is “soluble”.

With “GQLAQDGVPEWFHGAISREDAENLLESQPLGSFLIRVSHSHVGYTLSYKAQSSCCHFMVKLLDDGTFMIPGEKVAHTSLDALVTFHQQKPIEPRRELLTQPCRQKD” as the sequence, how does the “soluble on expression in E. coli” value read?
The value was “soluble”.

With “MLRVIVESASNIPKTKFGKPDPIVSVIFKDEKKKTKKVDNELNPVWNEILEFDLRGIPLDFSSSLGIIVKDFETIGQNKLIGTATVALKDLTGDQSRSLPYKLISLLNEKGQDTGATIDLVIGYDPP” as the sequence, how does the “soluble on expression in E. coli” value read?
The value was “soluble”.

Which “soluble on expression in E. coli” value does the source give for “MSLPSEISDKATVPIEIGLTAAIVAIEANQPMILTASGDGGGSLAGLPYGPFDAITHRTLEIGLRAWVEEQTGLRLGYVEQLYTFGDRGRHARLGDTEVHVASIGYLALTRAADNAARAAGATFEPWYRFFPWEDWREQQPAIIARDIIPELTAWAAQAEEPGMARALARKDRVRLFFGVDGAPWDEERVLDRYELLYEAGLIEEARRDGRPAALSRSKAPTLGVAMRFDHRRILATAIARLRAKLKYRPVVFELLPPEFTLTELQHTVEAISGRHLHKQNFRRLVEAGALVEPTGEM” here?
Its value is “not soluble”.

Which “soluble on expression in E. coli” value does the source give for “MNNQLVISDYIFPIHQYGKMGTIHSVFERSFNLKVQDQLINVANFHNYLSSFGMFLPDQLFQEIFPYVQQGNKVKITENQLTFYSTVGVKTIQLTPAEVVSLNITHFKLEKDQLRLLRDRLLARNLERRIGLPLDERAKHIFKKMSQKQKVWTLSEWQEVTNYLIGRGKGLTPSGDDILVAYQTILFILADERAAALAATLSAANLSTTDVSKGYIASSAKGYVNSLLYQLLLDLENHRDNRVDENIDRIIQIGHSSGKDMSFGMLLALQSVELDEK” here?
Its value is “not soluble”.

With “MQFLHILLLSILSLIFISSVQAVPSDQDIEALMGLQDQVNAFLGESNMSPEAKKKIEDMMAKKQAAIENSLGRK” as the sequence, how does the “soluble on expression in E. coli” value read?
Its value is “soluble”.

Reference: the DeepSol protein solubility set
